Data taken from the supplement of paper PMC11865577.

Columns and labels:
Test in all cases: pull-down binding Z-score (relative to library population); higher = stronger binding
[1] = tested on: G-clamp-N3 (biotin conjugate); conditions: RNA library: Library-1 (pre-miRNA loops + repeats)
Summary of the method: (§1)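 To score binding, a beads-only signal was subtracted, barcoded replicate probes were averaged with the highest and lowest dropped, and the value was converted to a Z-score using the library mean and standard deviation. The input was 1 μg of Cy5- or Cy3-end-labelled RNA library, heat-folded in phosphate/NaCl/KCl buffer and mixed for 60 min at 25 °C with streptavidin beads carrying 100 pmol of biotin-conjugated small molecule. Bound RNA was eluted in hot SDS and hybridised to a DNA barcode microarray at 55.5 °C for 20 h.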

[2] = tested on: TO-3-N3 (biotin conjugate); conditions: RNA library: Library-2
Summary of the method: as §1

[3] = tested on: TO-3-N3-2 (biotin conjugate); conditions: RNA library: Library-2
Summary of the method: as §1

TO-N3 (biotin conjugate) = conditions: RNA library: Library-2
Summary of the method: as §1

[4] = tested on: TO-N3-2 (biotin conjugate); conditions: RNA library: Library-2
Summary of the method: as §1

“CCUCGAAGCUGCCUUUAGAAAUGAGG [hsa-mir-4496]” was tested, and the “pull-down binding Z-score” value [1] was -0.107, the “pull-down binding Z-score” value [2] was -0.0169 and the “pull-down binding Z-score” value [3] was -0.192. For the same sequence, the “pull-down binding Z-score” value (TO-N3 (biotin conjugate)) was 0.176 and the “pull-down binding Z-score” value [4] was 0.142.
In the case of “UUCAGAUUUUGGAACAUUUCGGAUUUUGGA [hsa-mir-1290]”, the “pull-down binding Z-score” value [1] is reported as 2.01, the “pull-down binding Z-score” value [2] is reported as -0.172 and the “pull-down binding Z-score” value [3] is reported as -0.35. For the same sequence, the “pull-down binding Z-score” value (TO-N3 (biotin conjugate)) was -0.297 and the “pull-down binding Z-score” value [4] was -1.15.
For “CUUCGCGCUAGUUUGUUUGUGUUAAG [hsa-mir-6077]”, the “pull-down binding Z-score” value [1] was -0.639, the “pull-down binding Z-score” value [2] was -0.0696 and the “pull-down binding Z-score” value [3] was 0.0164. The “pull-down binding Z-score” value (TO-N3 (biotin conjugate)) was -0.0943 and the “pull-down binding Z-score” value [4] was -0.426.
For “CUCGCUGGGAGGUGUGCUAUCGUCUUCCCCGGGAG [hsa-mir-3689d-1]”, the “pull-down binding Z-score” value [1] was 0.293, the “pull-down binding Z-score” value [2] was -0.0907 and the “pull-down binding Z-score” value [3] was -0.13. The “pull-down binding Z-score” value (TO-N3 (biotin conjugate)) was 0.154 and the “pull-down binding Z-score” value [4] was 0.734.
With GGUAGAGAUGAUUUUUCCUACU [hsa-mir-5003] the “pull-down binding Z-score” value [1] was 0.245, the “pull-down binding Z-score” value [2] was 1.76 and the “pull-down binding Z-score” value [3] was 0.65. The “pull-down binding Z-score” value (TO-N3 (biotin conjugate)) was 1.78 and the “pull-down binding Z-score” value [4] was 0.226.
With “GAGGUGGGAAGGCUGCCCCAAAUGGCCUCUAACAUCCCUUCCAGUCUCCUCCUC [hsa-mir-6127]” the “pull-down binding Z-score” value [1] was -0.236, the “pull-down binding Z-score” value [2] was -0.0543 and the “pull-down binding Z-score” value [3] was 0.23. The “pull-down binding Z-score” value (TO-N3 (biotin conjugate)) was 0.194 and the “pull-down binding Z-score” value [4] was 0.919.
For CUACUCAAGGCUAG [hsa-mir-4266], the “pull-down binding Z-score” value [1] was -0.163, the “pull-down binding Z-score” value [2] was 1.32 and the “pull-down binding Z-score” value [3] was 0.132. For the same sequence, the “pull-down binding Z-score” value (TO-N3 (biotin conjugate)) was 1.35 and the “pull-down binding Z-score” value [4] was -0.0352.
In the case of “GAUAUGCCAUUAUGUGGGUCAUGAGGUGGUGA [hsa-mir-6864]”, the “pull-down binding Z-score” value [1] is reported as 0.225, the “pull-down binding Z-score” value [2] is reported as 0.197 and the “pull-down binding Z-score” value [3] is reported as 0.416. The “pull-down binding Z-score” value (TO-N3 (biotin conjugate)) was 0.738 and the “pull-down binding Z-score” value [4] was 1.54.
With UUGAGCAUCUUCUGGGCAGCUGA [hsa-mir-7854] the “pull-down binding Z-score” value [1] was -0.764, the “pull-down binding Z-score” value [2] was -0.0613 and the “pull-down binding Z-score” value [3] was 0.147. For the same sequence, the “pull-down binding Z-score” value (TO-N3 (biotin conjugate)) was 0.397 and the “pull-down binding Z-score” value [4] was 0.833.
For AGUUACACAGCUCACGAGUGCCU [hsa-mir-370], the “pull-down binding Z-score” value [1] was -0.352, the “pull-down binding Z-score” value [2] was -0.261 and the “pull-down binding Z-score” value [3] was -0.0679. The “pull-down binding Z-score” value (TO-N3 (biotin conjugate)) was 0.113 and the “pull-down binding Z-score” value [4] was 0.694.
GAAGAUUCUGAAAAUCACUAACU [hsa-mir-6878] was tested, and the “pull-down binding Z-score” value [1] was -1.6, the “pull-down binding Z-score” value [2] was 0.159 and the “pull-down binding Z-score” value [3] was 0.167. The “pull-down binding Z-score” value (TO-N3 (biotin conjugate)) was 0.273 and the “pull-down binding Z-score” value [4] was -0.0867.
With GUGCUGGCAGUGGCCACGUAA [hsa-mir-4276] the “pull-down binding Z-score” value [1] was 0.096, the “pull-down binding Z-score” value [2] was -0.0231 and the “pull-down binding Z-score” value [3] was 0.0605. The “pull-down binding Z-score” value (TO-N3 (biotin conjugate)) was 0.642 and the “pull-down binding Z-score” value [4] was 1.46.
UUAAUGAGGCCAUAGA [hsa-mir-6863] was tested, and the “pull-down binding Z-score” value [1] was -0.397, the “pull-down binding Z-score” value [2] was -0.374 and the “pull-down binding Z-score” value [3] was -0.277. The “pull-down binding Z-score” value (TO-N3 (biotin conjugate)) was -0.328 and the “pull-down binding Z-score” value [4] was -0.294.
In the case of “CCUUCUGCUUACAGGUAUUGGAAGG [hsa-mir-3158-1]”, the “pull-down binding Z-score” value [1] is reported as 0.832, the “pull-down binding Z-score” value [2] is reported as -0.281 and the “pull-down binding Z-score” value [3] is reported as -0.401. The “pull-down binding Z-score” value (TO-N3 (biotin conjugate)) was -0.371 and the “pull-down binding Z-score” value [4] was -0.685.
With GUUGCUUAGAUUACAUGUAAC [hsa-mir-890] the “pull-down binding Z-score” value [1] was -0.226, the “pull-down binding Z-score” value [2] was -0.632 and the “pull-down binding Z-score” value [3] was -0.214. The “pull-down binding Z-score” value (TO-N3 (biotin conjugate)) was -0.579 and the “pull-down binding Z-score” value [4] was 0.419.
In the case of “CCCAUAUGGACCUGCUAAGCUAUGGA [hsa-mir-1-1]”, the “pull-down binding Z-score” value [1] is reported as -0.475, the “pull-down binding Z-score” value [2] is reported as -0.0116 and the “pull-down binding Z-score” value [3] is reported as -0.0364. The “pull-down binding Z-score” value (TO-N3 (biotin conjugate)) was 0.289 and the “pull-down binding Z-score” value [4] was 0.361.
In the case of GCUGCUUGCACUCGUUCAGC [hsa-mir-3661], the “pull-down binding Z-score” value [1] is reported as 0.0999, the “pull-down binding Z-score” value [2] is reported as -0.0975 and the “pull-down binding Z-score” value [3] is reported as -0.246. For the same sequence, the “pull-down binding Z-score” value (TO-N3 (biotin conjugate)) was 0.1 and the “pull-down binding Z-score” value [4] was 0.863.
For “GCAUCCUUGGAAUCUGCACUCAAGGGAUGC [hsa-mir-5089]”, the “pull-down binding Z-score” value [1] was 0.605, the “pull-down binding Z-score” value [2] was 0.451 and the “pull-down binding Z-score” value [3] was -0.0765. The “pull-down binding Z-score” value (TO-N3 (biotin conjugate)) was 0.358 and the “pull-down binding Z-score” value [4] was 0.0295.
“CGCGGAGCAGCGCUGGGUGCAGCGCCUG [hsa-mir-4508]” was tested, and the “pull-down binding Z-score” value [1] was -0.567, the “pull-down binding Z-score” value [2] was -0.051 and the “pull-down binding Z-score” value [3] was -0.27. The “pull-down binding Z-score” value (TO-N3 (biotin conjugate)) was 0.334 and the “pull-down binding Z-score” value [4] was 1.5.
In the case of GUCUGUCACUGGGGAAGUC [hsa-mir-4682], the “pull-down binding Z-score” value [1] is reported as 1.71, the “pull-down binding Z-score” value [2] is reported as 0.735 and the “pull-down binding Z-score” value [3] is reported as 0.276. The “pull-down binding Z-score” value (TO-N3 (biotin conjugate)) was 1.19 and the “pull-down binding Z-score” value [4] was 0.993.
With AUCCCUUAGAUGCUAAGAUGGGGAU [hsa-mir-145] the “pull-down binding Z-score” value [1] was 1.18, the “pull-down binding Z-score” value [2] was -0.278 and the “pull-down binding Z-score” value [3] was -0.237. The “pull-down binding Z-score” value (TO-N3 (biotin conjugate)) was -0.513 and the “pull-down binding Z-score” value [4] was -0.75.
With “AGCUGUGUUUUCUGACUCAGUCAUAAU [hsa-mir-365b]” the “pull-down binding Z-score” value [1] was -0.674, the “pull-down binding Z-score” value [2] was -0.26 and the “pull-down binding Z-score” value [3] was -0.263. For the same sequence, the “pull-down binding Z-score” value (TO-N3 (biotin conjugate)) was -0.26 and the “pull-down binding Z-score” value [4] was -0.505.
In the case of AAGUCGAUUUCCAAAAGUGACUU [hsa-mir-3124], the “pull-down binding Z-score” value [1] is reported as -0.161, the “pull-down binding Z-score” value [2] is reported as -0.856 and the “pull-down binding Z-score” value [3] is reported as -0.588. The “pull-down binding Z-score” value (TO-N3 (biotin conjugate)) was -1.11 and the “pull-down binding Z-score” value [4] was -1.11.
In the case of “AAUGCUGUGUUUCUGUAUGGUAUU [hsa-mir-92a-1]”, the “pull-down binding Z-score” value [1] is reported as -0.453, the “pull-down binding Z-score” value [2] is reported as 0.212 and the “pull-down binding Z-score” value [3] is reported as -0.22. For the same sequence, the “pull-down binding Z-score” value (TO-N3 (biotin conjugate)) was 0.143 and the “pull-down binding Z-score” value [4] was -0.268.
In the case of “CCCUCAUAUGGCAGUUGGCGAGGGCCCAGUGAG [hsa-mir-6769a]”, the “pull-down binding Z-score” value [1] is reported as 2.45, the “pull-down binding Z-score” value [2] is reported as 0.974 and the “pull-down binding Z-score” value [3] is reported as 0.582. The “pull-down binding Z-score” value (TO-N3 (biotin conjugate)) was 1.33 and the “pull-down binding Z-score” value [4] was 1.53.
GUCUGGCAUUGUCUGAUAUAC [hsa-mir-1294] was tested, and the “pull-down binding Z-score” value [1] was 0.671, the “pull-down binding Z-score” value [2] was 1.12 and the “pull-down binding Z-score” value [3] was 0.316. For the same sequence, the “pull-down binding Z-score” value (TO-N3 (biotin conjugate)) was 1.2 and the “pull-down binding Z-score” value [4] was 0.408.
In the case of UAUAGGAAGGAAAUCUUAU [hsa-mir-6129], the “pull-down binding Z-score” value [1] is reported as -0.636, the “pull-down binding Z-score” value [2] is reported as -0.671 and the “pull-down binding Z-score” value [3] is reported as -0.279. For the same sequence, the “pull-down binding Z-score” value (TO-N3 (biotin conjugate)) was -0.641 and the “pull-down binding Z-score” value [4] was -0.517.
In the case of “UAAUAUGCACUAUAAAUAUAUUG [hsa-mir-450a-1]”, the “pull-down binding Z-score” value [1] is reported as -0.725, the “pull-down binding Z-score” value [2] is reported as -0.774 and the “pull-down binding Z-score” value [3] is reported as -0.431. For the same sequence, the “pull-down binding Z-score” value (TO-N3 (biotin conjugate)) was -1.16 and the “pull-down binding Z-score” value [4] was -1.33.
In the case of “UGGCAAAGACAUAGAUUGUUUAGCUACCCCUUUGCCA [hsa-mir-3119-2]”, the “pull-down binding Z-score” value [1] is reported as 0.167, the “pull-down binding Z-score” value [2] is reported as -0.516 and the “pull-down binding Z-score” value [3] is reported as -0.495. For the same sequence, the “pull-down binding Z-score” value (TO-N3 (biotin conjugate)) was -0.809 and the “pull-down binding Z-score” value [4] was -0.58.
In the case of CAAUAGUAAAAAGACAACCUGUUG [hsa-mir-3133], the “pull-down binding Z-score” value [1] is reported as 0.427, the “pull-down binding Z-score” value [2] is reported as -0.559 and the “pull-down binding Z-score” value [3] is reported as 0.0706. The “pull-down binding Z-score” value (TO-N3 (biotin conjugate)) was -0.651 and the “pull-down binding Z-score” value [4] was -0.486.
“AUCUUCCUGACCUGGUAAUAAUUAGGUGAGAAGGAU [hsa-mir-8069-2_8069-1]” was tested, and the “pull-down binding Z-score” value [1] was 0.78, the “pull-down binding Z-score” value [2] was -0.958 and the “pull-down binding Z-score” value [3] was -0.589. For the same sequence, the “pull-down binding Z-score” value (TO-N3 (biotin conjugate)) was -1.2 and the “pull-down binding Z-score” value [4] was -1.12.
“CUUUCUGUUGUCUGAAAGAAAGGAAAG [hsa-mir-519a-1_519a-2]” was tested, and the “pull-down binding Z-score” value [1] was -0.55, the “pull-down binding Z-score” value [2] was -0.467 and the “pull-down binding Z-score” value [3] was -0.315. For the same sequence, the “pull-down binding Z-score” value (TO-N3 (biotin conjugate)) was -0.572 and the “pull-down binding Z-score” value [4] was -0.239.
